In article PMC12196045:

biological target: T1, OmpR-N6His (Xenorhabdus nematophila YL001) (UniProt D3VF01); experiment: EMSA; settings: EMSA: 5x buffer 250 mM Tris, 250 mM KCl, 0.5 mM DTT, 50 mM MgCl2, 25% glycerol, pH 8.0 (1x: 50 mM Tris, 50 mM KCl, 0.1 mM DTT, 10 mM MgCl2, 5% glycerol); 30 min
T1 sequence: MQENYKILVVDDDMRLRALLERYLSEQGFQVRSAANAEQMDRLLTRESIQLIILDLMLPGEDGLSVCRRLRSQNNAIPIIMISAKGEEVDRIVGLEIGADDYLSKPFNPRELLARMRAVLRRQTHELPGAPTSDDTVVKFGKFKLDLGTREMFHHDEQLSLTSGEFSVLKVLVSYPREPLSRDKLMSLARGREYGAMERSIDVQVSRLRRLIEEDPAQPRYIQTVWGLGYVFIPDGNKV

Question: How did the binding turn out when “CCGGCCTTTGGTAATAAATCAGGATAATTGAGTGATGTAAACGGGAAAACAAGGGGAAAAAACCAAAGCATAAGCAATGATTGCCAATACGGTTAATGGCCTTAAAATACATGTGGTTAGTTTCTATTGAATATGGGGTTTCGGTAAAAGTCATGGATATTGCGGGCATGGAGCATCTTGGGAGCTGAAAC (double strand) [PompR191]” was run?
Answer: Its binding is “no binding”.

Question: For “TAATTCTTCCTCCAAGAGCAAAATACGATAACAAACTCCGCTATTCCATGACTTTACGTTCTTTTACATGCTCTGACGCTAGTTTGCAGCCGCAGGGTTATAGTTATCCACACTGAATCGAATAGAGCTATTCGAGAAAGCGGAGAAATTTAATGC (double strand) [PcpxR156]”, which binding is on record?
Answer: Its binding is “no binding”.

Question: For “TACGGCTACGTAAATAATAAAGCATTGGTTATGTCTGTTTGTTTTTTTGTACAAGGACGAATCTCAATTTAATTTCGAAAAATTGAGGTCATTGATCTTATTAATGGGTAGGTTGTTTACGATGTCAAAATGTTGCATTTGAAAACAGACAATCTTCCATTATTTAATGAGATCACTGCGATAAGTTTAGTGGAGTGAAATA (double strand) [PleuO202]”, which binding is on record?
Answer: The binding was “no binding”.

Question: Which binding does the source give for “TTTGGATTGCATAAATTTTGTTAAGAAAGGAGAAAAATAAAACCCCATGATAGTCTAAATAGTAAAAAAATGAAGTAAACCTTTGCCCTATTTAATAGAGTAGAGTAATGTCACAATCGGTATTATTTTATTTGATACTGCTGAAGTAAAAACACCAGGTTAGTTAGTAATTAAAATCAAAAAAAAGTGATGAATAAACAATG (double strand) [PlrhA203]” here?
Answer: The binding was “no binding”.
